Measurements reported in patent US20240052052A1 (ANTENGENE BIOLOGICS, published 2024).

Columns and labels:
[1] = target: T1, human CD24 (human, UniProt P25063 27-59, heavily glycosylated, GPI-anchored (as described in the background)); test: FACS, 5637 cells
T1 construct: whole, on cells; Target of all cell-based FACS assays; also called hCD24; Cluster of differentiation 24
T1 chain (looked up): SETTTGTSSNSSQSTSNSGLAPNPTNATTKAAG
Experimental: (§1) Screening & Expansion: The subcloning plates were screened by Acumen assay and the subclones with good binding ability were expanded to 24-wells for confirmation tests. The specificity and cross-reactivity of these subclones were confirmed with FACs analysis. […] Fluorescent dye-conjugated secondary antibody was used to detect the binding of the primary antibody with the cells. Median fluorescence intensity (MFI) was measured by FACs analysis.

[2] = target: T1, human CD24; test: FACS, MCF7 cells
Experimental: as §1

[3] = target: T1, human CD24; test: FACS, 5637 cells
Experimental: (§2) Sequences of some of antibodies from Table 1 were selected to generate and produce human IgG4 chimeric antibodies. […] The protocol for FACs analysis is described as follows: [0536] a. Digested cells using TrypLE™ Express Enzyme (IX); Centrifuged the harvested cells at 400 g for 5 min and discarding the supernatant. [0537] b. Washed the cells 2 times with cold FACS buffer by centrifuging at 400 g for 5 min and discarding the supernatant. [0538] c. […] Incubate at […] for 1 h. [0539] d. Washed the cells twice by using the condition in step b. Resuspended the cells with 100 μl/well diluted 2nd antibody, incubated at 4 degree for 1 h in the dark. [0540] e. Washed the cells twice by using the condition in step b. Resuspended the cells with 100 μl/well cold FACS buffer. Kept the cells in dark for FACS analysis.

[4] = target: T1, human CD24; test: FACS, MCF7 cells
Experimental: as §2

[5] = target: T1, human CD24; test: FACS, 5637 cells
[6] = target: T1, human CD24; test: FACS, MCF7 cells
[7] = target: T1, human CD24; test: FACS, A549 cells
Experimental: as §2

[8] = target: T1, human CD24; test: FACS, Nalm1 cells
Experimental: as §1

[9] = target: T1, human CD24; test: FACS, H1975 cells
Experimental: as §1

[10] = target: T1, human CD24; test: FACS, Nalm1 cells
Experimental: as §2

[11] = target: T1, human CD24; test: FACS, Nalm1 cells
[12] = target: T1, human CD24; test: FACS, H1975 cells
Experimental: as §2

[13] = target: T1, human CD24; test: FACS, HT-29 cells
Experimental: as §2

[14] = target: T1, human CD24; test: FACS, 293F-hCD24 cells
Experimental: as §1

[15] = target: T1, human CD24; test: FACS, 293F-hCD24 cells
Experimental: as §2

[16] = target: T1, human CD24; test: FACS, MDA-MB-468 cells
Experimental: as §2

[17] = target: T1, human CD24; test: FACS, 293F-hCD24 cells
[18] = target: T1, human CD24; test: FACS, MDA-MB-468 cells
[19] = target: T1, human CD24; test: cell-based or functional assay
[20] = target: T1, human CD24; test: FACS, CHOK1-hCD24 cells
[21] = target: T1, human CD24; test: FACS, CHOK1-hCD24 cells
Experimental: as §2

FACS MFI [1]: 9400
FACS MFI [2]: 1080
EC50 [3]: 2.7 nM
EC50 [4]: 8 nM
Max MFI [4]: 761
EC50 [5]: 5.74 nM
EC50 [6]: 6.54 nM
EC50 [7]: 3 nM
Max MFI [7]: 8820
FACS MFI [8]: 11800
FACS MFI [9]: 5210
EC50 [10]: 3.43 nM
Max MFI [10]: 48400
EC50 [11]: 5.08 nM
EC50 [12]: 8.26 nM
EC50 [13]: 6.61 nM
Max MFI [13]: 5900
FACS MFI [14]: 6560
EC50 [15]: 3.25 nM
Max MFI [15]: 34100
EC50 [16]: 4.2 nM
FACS MFI [16]: 6690
Max MFI [16]: 10800
EC50 [17]: 3.5 nM
EC50 [18]: 7.37 nM
EC50 (nM), phagocytosis against HT-29 cells [19]: 2.1 nM
Max phagocytosis Index (%), phagocytosis against HT-29 cells [19]: 68.2%
EC50 [20]: 8.67 nM
EC50 [21]: 3.63 nM
Max MFI [21]: 29700
B1: SN3 (antibody, V domains shown)
VH: QVQLKESGPGLVAPSQSLSITCTVSGFSLTSYGVHWVRQPPGKGLEWLGVIWAGGSTNYNSALMSRLSISKDNSKSQVFLKMNSLQTDDTAMYYCAVYYGYLFFAYWGQGTLVTVSA
VL: ENVLTQSPAIMSASPGEKVTMTCSASSSVSYMHWYQQKSTTSPKLWIYDTSKLASGVPGRFSGSGSGNSYSLTISSMEAEDVATYYCFQGSGYPLTFGGGTKLEIK
